The target in data set [1] is T1, FMRP (full length, iso7) (Homo sapiens, UniProt Q06787-9 Q06787-9:3-605). Nature of the data set: filter; antisense control in K+.
In data set [2] the target is FMRP I304N (KH2 mutant, full length) (Homo sapiens, UniProt Q06787-9 Q06787-9:3-605, I304N). The experiment in a line: filter; nearly as well as wild-type FMRP.
The target in data set [3] is T1, FMRP (full length, iso7). The experiment in a line: EMSA; 100 nM FMRP; supershifted by anti-FMRP mAb. Background: A gel shift assay detects complexes by their altered migration in electrophoresis.
The next data set concerns the target FMRP N-terminus (Homo sapiens, UniProt Q06787-9 Q06787-9:3-218). The experiment in a line: filter; all sc1 binding activity in C-terminal domain. The following applies: tags: N-terminal T7, C-terminal His (pET21b); label: 32P-UTP; stem-loop with intramolecular G4.
The target in data set [4] is T2, FMRP C-terminus (distal to KH domains, contains RGG box) (Homo sapiens, UniProt Q06787-9 Q06787-9:402-605). Described as above. The following applies: tags: N-terminal T7, C-terminal His (pET21b); label: 32P-UTP; stem-loop with intramolecular G4.
In data set [5] the target is T1, FMRP (full length, iso7). Nature of the data set: filter; severe decrease, undetectable.
Data set [6] addresses T1, FMRP (full length, iso7). Nature of the data set: filter; minimal effect.
The target in data set [7] is T1, FMRP (full length, iso7). Nature of the data set: filter; no effect versus sc1.
For data set [8], the target named is T1, FMRP (full length, iso7). Nature of the data set: filter; no binding detected.
Data set [9] addresses T1, FMRP (full length, iso7). The experiment in a line: filter; 5-6 nt stem sufficient for high affinity; boundaries mapped by alkaline hydrolysis/filter capture.
Data set [10] has as its target T2, FMRP C-terminus (distal to KH domains, …). The experiment in a line: filter; K+; abrogated in Li+. The following applies: tags: N-terminal T7, C-terminal His (pET21b); label: 32P-UTP; G4. On the procedure: To assess whether the RNAs listed in Table 1 bound FMRP in a G-quartet dependent manner, binding in the presence of Li⁺ versus K⁺ was assessed, and mutants in which the Hoogsteen paired Gs were changed to Cs were generated.

B1: Sec7-related GEF antisense transcript (ssRNA)
RNA: CCUCGGCCUCCUCCUGCCUCCCC
For B1, the binding result with FMRP (full length, iso7) [1] is “no binding”.

B2: sc1 (ssRNA)
RNA: GAGCGGCUGCGGUGUGGAAGGAGUGGCUGGGUUGCGCACCUUGGCUUC
On to B2, for which the binding result is recorded as “binds” in [2]; “binds” with FMRP (full length, iso7) [3]; “no binding” with FMRP N-terminus; “binds” in data set [4].

B3: sc1 A35A36 to CC (ssRNA)
RNA: GAGCGGCUGCGGUGUGGCCGGAGUGGCUGGGUUGCGCACCUUGGCUUC
modifications: [none]
In the case of B3, in the data set with FMRP (full length, iso7) [5], the binding result is given as “no binding”.

B4: sc1 U49U50 to AA (ssRNA)
RNA: GAGCGGCUGCGGUGUGGAAGGAGUGGCUGGGAAGCGCACCUUGGCUUC
modifications: [none]
Take B4: the binding signal with FMRP (full length, iso7) [6] was < 20 fold decrease.

B5: sc1 G38A (ssRNA)
RNA: GAGCGGCUGCGGUGUGGAAGAAGUGGCUGGGUUGCGCACCUUGGCUUC
modifications: [none]
In the case of B5, the binding signal with FMRP (full length, iso7) [6] was < 20 fold decrease.

B6: sc1 C44G (ssRNA)
RNA: GAGCGGCUGCGGUGUGGAAGGAGUGGGUGGGUUGCGCACCUUGGCUUC
modifications: [none]
For the molecule B6, the binding result with FMRP (full length, iso7) [7] is given as “binds”.

B7: sc1 conserved element only (ssRNA)
RNA: GUGGAAGGAGUGGCUGGG
Take B7: in the data set with FMRP (full length, iso7) [8], the binding result is “no binding”.

B8: sc1 truncated with 5-6 nt stem (boundaries nt 23-57) (ssRNA)
RNA: GCUGCGGUGUGGAAGGAGUGGCUGGGUUGCGCACC
Consider B8, for which the binding result with FMRP (full length, iso7) [9] was “binds”.

B9: Guanine nucleotide exchange factor (KIAA0763) 3'UTR site (ssRNA)
RNA: GGGGAGGCAGGAGGAGGCCGAGG
For the molecule B9, the binding result in [10] is on record as “binds”.

Source of the values: patent US20050130151, “Method and identification of downstream mrna ligands to fmrp and their role in fragile x syndrome and associated disorders” (Emory University, published 2005).
